Paper PMC9163089

Legend:
[1] = target: Cytosolic domain of YscV (YscVC, residues 356-704), co-expressed with YscX and YscY (Yersinia enterocolitica); assay: SEC
[2] = target: Cytosolic domain of YscV (YscVC, residues 356-704), co-expressed with YscX and YscY (Yersinia enterocolitica); assay: crystal structure
[3] = target: Cytosolic domain of YscV (YscVC, residues 356-704), purified alone (Yersinia enterocolitica); assay: SEC; analytical SEC of YscVC alone at 10, 25 and 100 µM initial concentration, Superdex 200 10/300GL, 20 mM Tris pH 8, 150 mM NaCl; monomer to nonamer

| Substance | stoichiometry N [1] | stoichiometry N [2] | stoichiometry N [3] |
| --- | --- | --- | --- |
| Cytosolic domain of YscV (YscVC, residues 356-704), co-expressed with YscX and YscY (domain or fragment) | 9 | 9 | – |
| Cytosolic domain of YscV (YscVC, residues 356-704), purified alone (domain or fragment) | – | – | 9 |
